T1: human PTK7 on cells (tumor cells endogenously expressing PTK7); CHO-hPTK7, CHO-S-hPTK7 and 293T-hPTK7 … (human, UniProt Q13308 31-1070)
T1 construct: whole, on cells; The cell line of each value is named under assay; also called H1299; H358
T1 sequence (looked up): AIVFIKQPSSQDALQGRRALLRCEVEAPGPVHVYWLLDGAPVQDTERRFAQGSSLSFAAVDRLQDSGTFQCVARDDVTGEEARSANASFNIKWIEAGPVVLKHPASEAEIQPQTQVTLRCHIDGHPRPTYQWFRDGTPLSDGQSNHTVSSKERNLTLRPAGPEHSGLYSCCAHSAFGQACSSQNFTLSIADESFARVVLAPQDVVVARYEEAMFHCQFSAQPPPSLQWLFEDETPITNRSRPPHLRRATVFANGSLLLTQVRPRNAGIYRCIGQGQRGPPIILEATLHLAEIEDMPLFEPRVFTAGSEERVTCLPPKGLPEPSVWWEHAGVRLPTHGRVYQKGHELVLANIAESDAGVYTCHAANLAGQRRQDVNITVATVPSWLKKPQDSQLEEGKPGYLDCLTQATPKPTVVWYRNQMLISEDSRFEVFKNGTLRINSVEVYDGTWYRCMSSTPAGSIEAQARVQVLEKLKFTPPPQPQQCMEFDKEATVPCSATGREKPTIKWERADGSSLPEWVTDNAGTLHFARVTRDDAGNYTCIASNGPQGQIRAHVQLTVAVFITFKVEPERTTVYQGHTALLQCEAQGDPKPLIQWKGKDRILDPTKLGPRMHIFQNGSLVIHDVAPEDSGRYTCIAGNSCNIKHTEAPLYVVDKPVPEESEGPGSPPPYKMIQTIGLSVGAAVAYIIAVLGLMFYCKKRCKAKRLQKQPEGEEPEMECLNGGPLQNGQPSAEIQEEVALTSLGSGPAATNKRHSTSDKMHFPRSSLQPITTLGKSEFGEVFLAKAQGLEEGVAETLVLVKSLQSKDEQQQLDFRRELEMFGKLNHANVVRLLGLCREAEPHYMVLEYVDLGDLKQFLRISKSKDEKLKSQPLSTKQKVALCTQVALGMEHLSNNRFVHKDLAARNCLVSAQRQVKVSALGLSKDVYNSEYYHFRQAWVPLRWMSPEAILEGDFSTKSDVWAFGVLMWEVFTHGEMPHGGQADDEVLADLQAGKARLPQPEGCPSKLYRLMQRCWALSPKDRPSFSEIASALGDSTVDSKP

T2: monkey PTK7 protein (extracellular sequence of monkey PTK7 with C-terminal 6×His tag) (monkey)
T2 chain: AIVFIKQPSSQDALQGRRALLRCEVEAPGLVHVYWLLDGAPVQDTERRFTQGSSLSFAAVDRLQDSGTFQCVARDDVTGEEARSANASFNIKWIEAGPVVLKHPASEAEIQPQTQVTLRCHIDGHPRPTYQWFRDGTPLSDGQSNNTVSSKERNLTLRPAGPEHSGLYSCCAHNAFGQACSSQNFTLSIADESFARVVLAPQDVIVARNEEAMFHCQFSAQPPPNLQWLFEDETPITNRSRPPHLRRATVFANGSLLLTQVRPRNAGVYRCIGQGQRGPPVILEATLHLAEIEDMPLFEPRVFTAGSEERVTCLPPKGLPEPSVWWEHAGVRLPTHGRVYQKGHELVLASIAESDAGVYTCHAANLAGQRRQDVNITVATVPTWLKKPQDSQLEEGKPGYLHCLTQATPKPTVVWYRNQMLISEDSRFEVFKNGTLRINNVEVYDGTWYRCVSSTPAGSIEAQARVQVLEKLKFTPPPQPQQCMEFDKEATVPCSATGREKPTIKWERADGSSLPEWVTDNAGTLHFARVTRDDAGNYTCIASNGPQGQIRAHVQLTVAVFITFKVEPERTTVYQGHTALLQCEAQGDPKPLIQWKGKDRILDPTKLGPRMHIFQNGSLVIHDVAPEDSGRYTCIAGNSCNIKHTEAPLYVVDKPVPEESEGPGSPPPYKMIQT

B1: 101A6HZ (anti-human PTK7 humanized antibody) (antibody, human IgG1, kappa)
heavy: not shown
light: DIVMTQSPDSLAVSLGERATINCKASQDVGSAVIWYQQKPGQSPKLLIYWASTRHTGVPDRFSGSGSGTDFTLTISSLQAEDVAVYYCQQYSSYPLTFGQGTKLEIKRTVAAPSVFIFPPSDEQLKSGTASVVCLLNNFYPREAKVQWKVDNALQSGNSQESVTEQDSKDSTYSLSSTLTLSKADYEKHKVYACEVTHQGLSSPVTKSFNRGEC
B2: Hu24 (PTK7 control antibody, taken from Hu24 in the Patent CN201580030255) (antibody)
chain 1: QVQLVQSGPEVKKPGASVKVSCKASGYTFTDYAVHWVRQAPGKRLEWIGVISTYNDYTYNNQDFKGRVTMTRDTSASTAYMELSRLRSEDTAVYYCARGNSYFYALDYWGQGTSVTVSS
chain 2: EIVLTQSPATLSLSPGERATLSCRASESVDSYGKSFMHWYQQKPGQAPRLLIYRASNLESGIPARFSGSGSGTDFTLTISSLEPEDFAVYYCQQSNEDPWTFGGGTKLEIK
B3: 64A10HZ (anti-human PTK7 humanized antibody) (antibody, human IgG1, kappa, V domains shown)
VH: QVQLQESGPGLVKPSETLSLTCTVSGFSLTSYGVYWVRQPPGKGPEWLGVIWTSGNTNYNPSLKSRLTISKDNSKNQVSLKLSSVTAADTAVYYCVKHDGGNYVGVMNYWGQGTLVTVSS
VL: EIVMTQSPDFQSVTPKEKVTITCRASQSISDYLHWYQQKPDQSPKLLIKYASQSISGVPSRFSGSGSGSDFTLTINSLEAEDAATYYCQNGHSFPPTFGQGTKLEIKR
notes: Human IgG1 heavy chain constant region and human Kappa light chain constant region; expressed in CHO-S cells

Biological target: T1, human PTK7 on cells (tumor cells …)
Experiment: flow cytometry on T47D cells
Text: A flow cytometer (Beckman, Cytoflex) was used for detecting the affinity of the anti-human PTK7 chimeric and humanized antibodies with human non-small cell lung cancer cells H1299, human lung adenocarcinoma cells H1975, human breast cancer cells T47D, human ovarian cancer cells OVCAR-3 (all purchased from NANJING COBIOER BIOSCIENCES CO., LTD) and CHO-hPTK7 overexpression cells.
The adherent cells were digested by using a pancreatin (Gibco) solution; a proper amount of cells were counted and taken, washed twice by using 1×PBS, and re-suspended in a 1% BSA solution; and then the cells were transferred into a 96-well deep plate at a density of 50 μl/well; a candidate antibody was diluted by using 1% BSA, then 50 μl of diluted antibody was added into the deep plate containing the cells, and incubated for 40 min at 4° C.; the cells were washed twice by using PBS, then 50 μl of diluted secondary antibody was added into each well, uniformly mixed, and incubated for 30 min at 4° C.; and the cells were washed twice by using PBS, then re-suspended in 400 μl of PBS, and subjected to examination by flow cytometer.

Binder | EC50
B1 | 0.0968 µg/mL
B2 | 0.0861 µg/mL
B3 | 0.217 µg/mL

Biological target: T2, monkey PTK7 protein (extracellular …)
Experiment: BLI (ForteBio), antibody on Protein A sensor, monkey PTK7 protein in solution
Text: The dynamic affinity of the control Hu24 and candidate antibodies 64A10HZ, 101A6HZ, 4E12HZ and 19C2HZ with human PTK7-His was detected by using ForteBio (Pall life sciences).
ELISA and ForteBio were adopted to detect binding of the anti-human PTK7 chimeric and humanized antibodies to the monkey, mouse and rat PTK7 proteins.

Binder | Kd
B1 | 134 nM
B2 | 11.9 nM
B3 | 26.7 nM

— US20260250420A1 (SICHUAN KELUN BIOTECH BIOPHARMACEUTICAL, published 2026)
